{"source": "patent US20210069289", "target": "human octamer-binding transcription factor 4 (OCT4), endogenous in NCCIT and NTERA-2 cells (UniProt Q01860)", "sequence (Q01860 whole entry, looked up)": "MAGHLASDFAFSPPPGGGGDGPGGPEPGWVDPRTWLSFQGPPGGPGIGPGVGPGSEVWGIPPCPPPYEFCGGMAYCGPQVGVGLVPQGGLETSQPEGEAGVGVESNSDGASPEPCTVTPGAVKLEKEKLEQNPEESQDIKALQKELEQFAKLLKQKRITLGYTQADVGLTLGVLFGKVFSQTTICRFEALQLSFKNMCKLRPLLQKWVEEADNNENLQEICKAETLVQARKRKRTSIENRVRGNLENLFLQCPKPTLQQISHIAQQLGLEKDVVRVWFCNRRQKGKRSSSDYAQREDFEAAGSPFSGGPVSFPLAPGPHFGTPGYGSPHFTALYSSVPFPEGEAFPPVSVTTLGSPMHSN", "data": [{"substance": "protein phosphatase 1 (PP1), endogenous in NCCIT and NTERA-2 cells", "values": [{"measurement": "phosphorylated OCT4 after doxycycline-dependent shRNA suppression of PP1 (western blotting and immunofluorescence staining)", "result": "when the expression of PP1 was suppressed using doxycycline, the phosphorylated OCT4 was increased"}, {"measurement": "phosphorylation of OCT4 after okadaic acid treatment (western blotting and immunofluorescence staining)", "result": "when PP1 was inhibited, the phosphorylation of OCT4 was increased"}]}]}
